In article PMC7658359 (2020):

Columns and labels:
Experiment in all cases: ITC
[1] = target: OsChz1-C mutant 2M (rice (Oryza sativa))
[2] = target: OsChz1-C mutant 1M (rice (Oryza sativa))
[3] = target: OsChz1-C mutant 3M (rice (Oryza sativa))

- Kd [1]: 259 nM
- Kd [2]: 150 nM
- Kd [3]: 146 nM
B1: Arabidopsis histone H2A (HTA1)-H2B (HTB1) dimer (complex)
chain 1: MAGRGKTLGSGGAKKATSRSSKAGLQFPVGRIARFLKAGKYAERVGAGAPVYLAAVLEYLAAEVLELAGNAARDNKKTRIVPRHIQLAVRNDEELSKLLGDVTIANGGVMPNIHNLLLPKKAGASKPQED
chain 2: MAPRAEKKPAEKKTAAERPVEENKAAEKAPAEKKPKAGKKLPPKEAGDKKKKRSKKNVETYKIYIFKVLKQVHPDIGISSKAMGIMNSFINDIFEKLAQESSKLARYNKKPTITSREIQTAVRLVLPGELAKHAVSEGTKAVTKFTSS
